In data set [1] the test system is K4 kissing-loop RNA reporter. Nature of the data set: apparent KD of K4 kissing-loop reporter; higher = weaker reporter binding. The settings on record: Eterna round: R107. Here is the method: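 RNA-MaP round R107: designed RNA switches with theophylline, tryptophan, arginine or FMN aptamers are transcribed on-chip within common flanks. They are titrated with a labelled K4 kissing-loop RNA reporter in RNA-MaP buffer (100 mM Tris pH 7.5, 80 mM KCl, 4 mM MgCl2), without ligand or with the indicated ligand. Median apparent KD per design.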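 Also: bound reporter read as fluorescence of individual clusters on recovered sequencing chips by microscopy, with normalized cluster intensities fitted with a binding model.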

Data set [2] concerns MS2 coat protein. Nature of the data set: apparent KD of MS2 coat protein; designed switch direction (-1 OFF switch, 1 ON switch): -1; higher = weaker reporter binding. In a few lines: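 On Illumina chips, designed RNA switches with common flanks were made by stalled E. coli RNA polymerase. Titrations with SNAP-549-labelled MS2 coat protein, doubling from 0.7 or 1.5 nM to 3 µM, were done with no input, with 200 uM small-molecule ligand, or with an oligonucleotide input. Apparent KD is the median per design over clusters, from curve fits of normalised cluster fluorescence.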

[3] abbreviates: input ligand: theophylline 20 uM.
Where [4] appears, read: input ligand: tryptophan 2.4 mM.
Where [5] appears, read: Eterna round: R95, input ligand: microRNA oligo, concentration not stated.

“GGAGGUUGGUGCGAUACCAGACCAGCAGUGAUGUUGCGCCAAAGUGAGUGAUGUUCACCGGUCCCUUGGCAGCGCAUUCCUUUAG [Same State Theophylline B GF 14]”: the “apparent KD of K4 kissing-loop reporter” value in data set [1] (input ligand: FMN 200 uM) is 964 nM; in data set [1] (input ligand: arginine 13.2 mM), 1110 nM; in data set [1] (input ligand: none) it was 1440 nM; in data set [1] (setting [3]), 1120 nM; in data set [1] (setting [4]), 1110 nM.
As to “UGAUACCAGACGGCCGCCACUGCGCCAGUCAAUGACUGAGCGCGGUGGCGCUCAGUGAUGUUGUGCAGGACCGGGUCUGGUAUCU [Mod of Eli's TrypBX 8 v6]”, the “apparent KD of K4 kissing-loop reporter” value worked out at 476 nM in data set [1] (input ligand: FMN 200 uM); 383 nM in data set [1] (input ligand: arginine 13.2 mM); 410 nM in data set [1] (input ligand: none); 364 nM in data set [1] (setting [3]); 398 nM in data set [1] (setting [4]).
The like results for “GGACGCCGGUCGGCCGCCACUCACAGCAGCCAGUGAUGUUGGAUUGUAGCGGAGUGAUGUUCCGAGAGGACCGGGACUGCAGUCU [Same State Tryptophan B GF 11]” were, in that order, 161 nM, 135 nM, 153 nM, 114 nM and 137 nM.
“AGAAGAGUGAUGUUCUUCUAUAUCUCAGAAGGAGCGACAUAAAUGUCAGGUAGGUCGCUGAGAUGAAAUCUCACACAGAUCUUGG [Arg A SS t8]”: the “apparent KD of K4 kissing-loop reporter” value was 127 nM in data set [1] (input ligand: FMN 200 uM); 149 nM in data set [1] (input ligand: arginine 13.2 mM); 154 nM in data set [1] (input ligand: none); 182 nM in data set [1] (setting [3]); 109 nM in data set [1] (setting [4]).
For “AGAGUUUUAUGAGGAUAUGAGAUAGUUAAUGAGUGAGUUAUAGUGUAGUUUGUUUAGUGAUGUUAUUUAGAAGGCGUGAGUGAUG [ssxsmullin]” the same measures were 151 nM, 95.9 nM, 122 nM, 132 nM and 84.4 nM.
Regarding “AAAUAGAUCAGUCAACCAGUGAUGUUGGAAGGAGCGUGCGAAAGCACAGGUAGGUCGCCAUAAUAAAAUUGGCUGAUCAAAAUAA”, the “apparent KD of K4 kissing-loop reporter” value in data set [1] (input ligand: FMN 200 uM) is 340 nM; in data set [1] (input ligand: arginine 13.2 mM), 615 nM; in data set [1] (input ligand: none) it was 648 nM; in data set [1] (setting [3]), 614 nM; in data set [1] (setting [4]), 344 nM.
The like results for “GCAUGGGUGCUUGCACAAGUGAUGUUUGGGCGAGGACCGGUACGGCCGCCACUCGUACGUUUAGUUAAAAGACAUCAUGCGAGUC [theeternabot_exclusion_KL_Trp_A_11]” were, in that order, 291 nM, 246 nM, 356 nM, 339 nM and 164 nM.
For “AAUAAGGUCGCCGAUACCAGCGCGGGCAGAGCAAAGCUCUGCCCGGCAGUGAUGUUGCCGCGCCCUUGGCAGCGGUGGCACGACC [Omei KL Theo B SS C v7]” the same measures were 166 nM, 48.4 nM, 47.2 nM, 216 nM and 55.8 nM.
For “GGUGAUGAGCACGAUACCAGCCUCGGAGCCAGUGAUGUUGGCCCAGUUUAGAAUAAGACAGGCCCUUGGCAGCGUGACGAUGGCU [Inorusre]” the same measures were 885 nM, 980 nM, 1020 nM, 687 nM and 981 nM.
In the case of “AGACUACCAACACUGUCAAUAGACAGUGACUAGGAUAUGCUGAUAAGCAGAAGGAGUGAUGUUCCUAAUAGAAAGGUAGUCAAAU [FmnAX 17 #SwitchBubble #StaticStem #K4Early]”, the “apparent KD of K4 kissing-loop reporter” value amounted to 294 nM in data set [1] (input ligand: FMN 200 uM); 237 nM in data set [1] (input ligand: arginine 13.2 mM); 252 nM in data set [1] (input ligand: none); 222 nM in data set [1] (setting [3]); 219 nM in data set [1] (setting [4]).
For “CCCUCACGAGUGAUGUUCGUAGGGUACAGUCAGGAUAUCAUGCGGUUGAGAAGGGACAGAGAGGGCGGCCACGGGUUGCUCCUCU [Lariusteza]” the same measures were 183 nM, 259 nM, 386 nM, 345 nM and 305 nM.
Consider “UAGGGCAUCGCAGGAUAUCCUGCUUAACGUUGGAUUCCAGUGAUGUUGGAAAGUCGGCCUAGGGUAGGAGAAGGGCGAACUUGAA [Maxean]”, for which the “apparent KD of K4 kissing-loop reporter” value in data set [1] (input ligand: FMN 200 uM) was 172 nM; in data set [1] (input ligand: arginine 13.2 mM), 157 nM; in data set [1] (input ligand: none), 194 nM; in data set [1] (setting [3]) it was 195 nM; in data set [1] (setting [4]), 98.1 nM.
The like results for “AAUAAAAUCACGGCCGCCACUGAUAUCCAUAUUAGGAGUGAUGUUCCUAUGACUAUAUAAUUUAACAGGACCGGGUGAAUAUUUA [JR_SSTryptoB_Sub024]” were, in that order, 104 nM, 111 nM, 107 nM, 115 nM and 100 nM.
“CCAUUCUUUUACGAUACCAGUUUAAUAUAUUUAUUCAAAACCCUUGCCGAGUGAUGUUCGGACCCUUGGCAGCGUUUGCGAGAGG [ttedstkmullin]”: the “apparent KD of K4 kissing-loop reporter” value in data set [1] (input ligand: FMN 200 uM) came out at 455 nM; in data set [1] (input ligand: arginine 13.2 mM), 376 nM; in data set [1] (input ligand: none), 465 nM; in data set [1] (setting [3]), 434 nM; in data set [1] (setting [4]), 356 nM.
On to “GGAGAGUCAGGAUAUACAUGAGGAUCACCCAUGUUGGAAAGUGGAGGGACGGGAGUCCGUAGAAGGGACGAGAG [Identicality] (puzzle: Exclusion 3)”, for which the “apparent KD of MS2 coat protein” value in data set [2] (setting [5]) is 27.7 nM.
The same measure, in the same setting: to “GGUGCGUAUGUGAGGAUAUGCUGGUCCUUGGCUCGGCAGAAGGCACAUGAGGAUCACCCAUGUGGUGUCGUACC [salish99_Bmod_ex4_054] (puzzle: Brourd's mod of Exclusion 4)” belongs 141 nM.
Regarding “AGUACUAACACGAAAGUGUUAGUACAAUAAGCUUGUGAAACAUGAGGAUCACCCAUGUCCUCAUAGGCUCGUCUUAU [salish99_TOv2_r3_054] (puzzle: Sensor v3, turn-off variant 2)”, the “apparent KD of MS2 coat protein” value in data set [2] (Eterna round: R95, input ligand: FMN 200 uM) turned out to be 26.3 nM; in data set [2] (setting [5]), 607 nM; in data set [2] (Eterna round: R95, input ligand: none), 18.3 nM.
With “GCUGCAAAUGUAGGAUAUCUGCACGUGUAGUGCAGAGAAGGACAUGAGGAUCACCCAUGUAGAUCAGCAGCAAUUAAUUUAAUU [ENG1/5-A3] (Eterna round: R96, puzzle: Exclusion NG 1)”, the “apparent KD of MS2 coat protein” value was 288 nM in data set [2] (input ligand: FMN 200 uM); 34.5 nM in data set [2] (input ligand: microRNA oligo, concentration not stated); 42.2 nM in data set [2] (input ligand: none).
In the case of “GAGUUAGCGUGAGGAAUAUACAUGAGGAUCACCCAUGUUAGCAAAUAUAUUGCUCGUCUUAUAACAACAAUUAACUC [Alarm 9 - Jieux - Sensor, turn-off variant 1] (Eterna round: R97, puzzle: Sensor, turn-off variant 1)”, the results for the “apparent KD of MS2 coat protein” value in data set [2] (input ligand: FMN 200 uM) and in data set [2] (input ligand: none) were 13.6 nM and 14.3 nM, respectively.
The like results for “CAGUACUGAGGAUAUACAUGAGGAUCACCCAUGUUCUUCGGCUAGGAAACUAGCAAAGGUAGAAGGCAGUACUG [Salish 065 m16] (Eterna round: R97, puzzle: Exclusion 3)” were, in that order, 285 nM and 15.7 nM.
For “GCCUUAUCUGUCAGGAUAUACAAUAAAAUAAUUAAGUAGAAGGGACAUGAGGAUCACCCAUGUACAUUACAUUG [alecazam26] (Eterna round: R97, puzzle: Brourd's mod of Exclusion 4)” the same measures were 67.4 nM and 17.9 nM.
Consider “UUUUAACAUGAGGAUCACCCAUGUGAGGAUAUCGAAAUUUAUAUUAAUAUUAAUAUUUCGAGAAGGCACAUUUU [JMF 25] (puzzle: Exclusion 1)”, for which the “apparent KD of MS2 coat protein” value in data set [2] (setting [5]) was determined as 125 nM.

The record behind these values is the supplement of paper PMC9170038.
